Patent US20220118103A1, “METHOD FOR DECREASING IMMUNOGENICITY OF PROTEIN AND PEPTIDE” (HANMI PHARM. CO., LTD., priority 2014, published 2022)
Entries after “also recorded” stand apart in the source; their conditions may differ. Like-named read-outs stand apart in the source and are kept apart here.

Key:
[1] = Production of antibodies against long-acting insulinotropic peptide in normal rats, 26-week administration (bridging ELISA); format: in vivo, Sprague Dawley rat; details: for % positive / Positive (animals with antibody) / Time point (of positive antibody finding): SD rat
Method: The blood was collected before and during administration, at the 13rd, 19th and 26th week, and at the end of the recovery period, the serum was separated from this. It was determined on whether to produce the antibodies against the insulinotropic peptide.
(§1) In order to detect whether the conjugate of Example 3 has produced an anti-drug antibody (ADA) in the body of rat or Cynomolgus monkey, the conjugate was examined by the bridging ELISA method. The biotinylated conjugate of Example 3 was bound to the 96-well microplate in which streptavidin was coupled to the bottom thereof, and washed with water. Digoxigenin(DIG)-labeled conjugate of Example 3 (hereinafter, HM11260C) was added along with the serum samples of rat or monkey to react and then washed with water. Then, the horseradish peroxidase-coupled anti-DIG antibody (anti-DIG-POD antibody) was added and developed by TMB substrate (3,3′,5,5′-tetramethylbenzidine substrate).
(§2) Measurement sensitivity in the rat serum was 3.1 ng/ml, and the measurement sensitivity in monkey serum was 12.5 ng/ml. To evaluate the neutralizing capacity against HM11260C of detected anti HM11260C antibody, serum samples and HM11260C were added to the human […] cell line (GLP-1R/CHO) and then the inhibition rate of cAMP-induction was measured.

[2] = Production of antibodies in Cynomolgus monkey, 26-week administration (bridging ELISA); format: in vivo
Method: The blood was taken before and during administration, at the 12th, 19th and 26th week, and at the end of the recovery period, the serum was separated from this. It was determined whether to produce the antibodies against the insulinotropic peptide.
as §1, §2

[3] = tested on: human GLP-1 overexpressed cell line (GLP-1R/CHO); experiment: Neutralizing capacity of detected anti-HM11260C antibody: inhibition of cAMP induction; format: cell-based; details: for Neutralizing Ab: SD rat serum
Method: as §2

[4] = clinical, literature; cited from earlier work
[5] = tested on: peripheral blood mononuclear cells (PBMC) of the donor, CD8+ T cells removed
[6] = tested on: peripheral blood mononuclear cells (PBMC) of the donor, CD8+ T cells removed; remark: listed apart in the source
[7] = Total of all groups incl. vehicle, n=200
[8] = Total of all groups incl. vehicle, n=40

## Imidazo-Acetyl Exendin-4 (Lys27)-Immunoglobulin Fc Conjugate [HM11260C]
[1]; 26 weeks, high dose, n=60
  % positive: 1.6%
[1]; 26 weeks, low dose, n=40
  % positive: 2.5%
[1]; 26 weeks, mid dose, n=40
  % positive: 0%
[1]; s.c. once a week 26 weeks + 4 weeks recovery, high dose, n=60
  Positive (animals with antibody): 1
[1]; s.c. once a week 26 weeks + 4 weeks recovery, low dose, n=40
  Positive (animals with antibody): 1
[1]; s.c. once a week 26 weeks + 4 weeks recovery, mid dose, n=40
  Positive (animals with antibody): 0
[1]; [7]
  % positive: 1.0%
  Positive (animals with antibody): 2
[1]; high dose
  Time point (of positive antibody finding): recovery
[1]; low dose
  Time point (of positive antibody finding): Week 13
[1]; among 160 rats administered with the drug
  subjects in which antibodies were detected: two
[2]; [8]
  % positive: 0%
  Positive/total: 0
[2]; all subjects
  production of antibodies: no production of the antibodies in all subjects was detected
[2]; high dose, n=12
  % positive: 0%
[2]; low dose, n=8
  % positive: 0%
[2]; mid dose, n=8
  % positive: 0%
[2]; s.c. once a week 26 weeks + 4 weeks recovery, high dose, n=12
  Positive/total: 0
[2]; s.c. once a week 26 weeks + 4 weeks recovery, low dose, n=8
  Positive/total: 0
[2]; s.c. once a week 26 weeks + 4 weeks recovery, mid dose, n=8
  Positive/total: 0
[3]; Total of all groups
  Neutralizing Ab: 0
[3]; high dose
  Neutralizing Ab: 0
[3]; low dose
  Neutralizing Ab: 0
[3]; mid dose
  Neutralizing Ab: 0
[3]; sera of the two antibody-positive rats
  neutralizing ability of the detected antibodies: not neutralizing antibodies; also recorded: no neutralizing ability

## Lixisenatide
[4]
  patients who produced an antibody: 60-71%

## Keyhole Limpet Haemocyanin [KLH, reference compound]
[5]
  Proliferation and ELISpot %: 80%

## imidazoacetyl-exendin-4 [CA Exendin-4]
[5]
  Frequency of Response (%): 12%
  Proliferation and ELISpot %: 10%
[6]
  Frequency of Response (%): 12%
